In publication doi:10.1101/2024.12.03.626531, “Lineage–specific amino acids define functional attributes of the protomer-protomer interfaces for the Rad51 and Dmc1 recombinases” (bioRxiv, 2024):

Target: the molecule itself
Assay: cryo-EM structure; helical filament: ScDmc1 5 µM with 0.25 µM 96-mer ssDNA in HR buffer supplemented with 1.5 mM CaCl2, 30°C for 5 minutes; 8 mM CHAPSO added before freezing

B1: S. cerevisiae Dmc1 (natural protein, UniProt P25453 1-334, looked up)
chain: MSVTGTEIDSDTAKNILSVDELQNYGINASDLQKLKSGGIYTVNTVLSTTRRHLCKIKGLSEVKVEKIKEAAGKIIQVGFIPATVQLDIRQRVYSLSTGSKQLDSILGGGIMTMSITEVFGEFRCGKTQMSHTLCVTTQLPREMGGGEGKVAYIDTEGTFRPERIKQIAEGYELDPESCLANVSYARALNSEHQMELVEQLGEELSSGDYRLIVVDSIMANFRVDYCGRGELSERQQKLNQHLFKLNRLAEEFNVAVFLTNQVQSDPGASALFASADGRKPIGGHVLAHASATRILLRKGRGDERVAKLQDSPDMPEKECVYVIGEKGITDSSD
notes: Dmc1 meiotic recombinase, Saccharomyces cerevisiae, full-length wild type; Helical filament on a 96-nt ssDNA with ATP; 6.35 monomers per turn; Expressed as 6XHis-ScDmc1; no removal of the tag is described; also called ScDmc1; yeast Dmc1; source: E. coli BL21 (DE3) Rosetta2, purified (Talon resin, heparin sepharose)
  binding result: binds
